Tests used:
[1] = target: human DLL3 expressed on the surface of cells (human) (UniProt Q9NYJ7); assay: flow cytometry, 10 ug/ml AMG 757 on CHO huDLL3 cells, anti-human IgG Fc-APC
[2] = target: mouse DLL3 expressed on CHO cells (mouse) (UniProt O88516); assay: flow cytometry, 10 ug/ml AMG 757 on CHO muDLL3 cells, anti-human IgG Fc-APC
[3] = target: cynomolgus monkey DLL3 expressed on CHO cells (cynomolgus monkey); assay: flow cytometry, 10 ug/ml AMG 757 on CHO cynoDLL3 cells, anti-human IgG Fc-APC
[4] = target: rat DLL3 expressed on CHO cells (rat) (UniProt O88671); assay: flow cytometry, 10 ug/ml AMG 757 on Low CHO rtDLL3 cells, anti-human IgG Fc-APC
[5] = target: rat DLL3 expressed on CHO cells (rat) (UniProt O88671); assay: flow cytometry, 10 ug/ml AMG 757 on High CHO rtDLL3 cells, anti-human IgG Fc-APC
[6] = target: human FLT3 expressed on CHO cells (human) (UniProt P36888); assay: flow cytometry, 10 ug/ml AMG 757 on CHO huFTL3 (negative control) cells, anti-human IgG Fc-APC

rat DLL3 expressed on CHO cells (rat), sequence (O88671 33-589): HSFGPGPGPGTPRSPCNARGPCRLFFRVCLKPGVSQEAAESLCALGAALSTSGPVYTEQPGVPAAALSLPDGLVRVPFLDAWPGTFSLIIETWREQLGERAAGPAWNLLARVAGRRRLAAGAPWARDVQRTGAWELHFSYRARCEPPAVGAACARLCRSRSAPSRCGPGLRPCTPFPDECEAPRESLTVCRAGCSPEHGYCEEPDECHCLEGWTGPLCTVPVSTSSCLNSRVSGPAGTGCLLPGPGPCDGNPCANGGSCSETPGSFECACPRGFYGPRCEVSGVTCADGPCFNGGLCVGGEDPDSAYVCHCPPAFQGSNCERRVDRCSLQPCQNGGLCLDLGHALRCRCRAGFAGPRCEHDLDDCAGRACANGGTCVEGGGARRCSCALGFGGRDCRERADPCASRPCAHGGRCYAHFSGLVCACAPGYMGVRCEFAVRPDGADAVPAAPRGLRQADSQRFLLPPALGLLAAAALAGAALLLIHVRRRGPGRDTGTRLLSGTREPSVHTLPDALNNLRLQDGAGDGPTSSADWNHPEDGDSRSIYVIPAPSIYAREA
human DLL3 expressed on the surface of cells (human), sequence (Q9NYJ7 27-618 limits assumed): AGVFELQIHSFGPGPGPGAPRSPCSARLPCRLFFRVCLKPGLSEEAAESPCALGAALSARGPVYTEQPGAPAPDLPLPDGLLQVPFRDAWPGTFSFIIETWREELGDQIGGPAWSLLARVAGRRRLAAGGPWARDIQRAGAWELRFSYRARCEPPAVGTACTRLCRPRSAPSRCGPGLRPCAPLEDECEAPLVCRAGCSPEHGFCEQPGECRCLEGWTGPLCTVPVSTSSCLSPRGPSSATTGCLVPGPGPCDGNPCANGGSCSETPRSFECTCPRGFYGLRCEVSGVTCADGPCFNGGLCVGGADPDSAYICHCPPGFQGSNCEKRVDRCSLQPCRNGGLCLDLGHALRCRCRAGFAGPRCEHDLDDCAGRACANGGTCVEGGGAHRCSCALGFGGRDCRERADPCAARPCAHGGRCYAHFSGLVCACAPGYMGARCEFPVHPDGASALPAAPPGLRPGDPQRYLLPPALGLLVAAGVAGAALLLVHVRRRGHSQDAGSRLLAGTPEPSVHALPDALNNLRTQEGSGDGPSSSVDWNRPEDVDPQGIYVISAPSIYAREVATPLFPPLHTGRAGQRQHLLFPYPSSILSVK
cynomolgus monkey DLL3 expressed on CHO cells (cynomolgus monkey), sequence (chain, as listed by the source, form in doubt): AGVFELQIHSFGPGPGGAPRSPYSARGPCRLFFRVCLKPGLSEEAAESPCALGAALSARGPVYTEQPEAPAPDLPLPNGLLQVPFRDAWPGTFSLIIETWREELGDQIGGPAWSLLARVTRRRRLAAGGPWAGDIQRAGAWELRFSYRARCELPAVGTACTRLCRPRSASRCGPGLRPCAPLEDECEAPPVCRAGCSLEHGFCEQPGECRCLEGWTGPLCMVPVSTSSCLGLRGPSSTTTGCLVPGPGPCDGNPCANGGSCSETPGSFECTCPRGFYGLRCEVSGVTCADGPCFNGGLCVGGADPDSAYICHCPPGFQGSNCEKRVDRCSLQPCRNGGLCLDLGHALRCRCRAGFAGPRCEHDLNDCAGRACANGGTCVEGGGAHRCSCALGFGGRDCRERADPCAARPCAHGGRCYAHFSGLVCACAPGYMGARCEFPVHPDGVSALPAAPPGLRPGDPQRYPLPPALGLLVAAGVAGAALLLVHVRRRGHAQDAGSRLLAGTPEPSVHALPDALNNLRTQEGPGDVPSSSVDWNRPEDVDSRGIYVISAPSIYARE
mouse DLL3 expressed on CHO cells (mouse), sequence (O88516 33-592): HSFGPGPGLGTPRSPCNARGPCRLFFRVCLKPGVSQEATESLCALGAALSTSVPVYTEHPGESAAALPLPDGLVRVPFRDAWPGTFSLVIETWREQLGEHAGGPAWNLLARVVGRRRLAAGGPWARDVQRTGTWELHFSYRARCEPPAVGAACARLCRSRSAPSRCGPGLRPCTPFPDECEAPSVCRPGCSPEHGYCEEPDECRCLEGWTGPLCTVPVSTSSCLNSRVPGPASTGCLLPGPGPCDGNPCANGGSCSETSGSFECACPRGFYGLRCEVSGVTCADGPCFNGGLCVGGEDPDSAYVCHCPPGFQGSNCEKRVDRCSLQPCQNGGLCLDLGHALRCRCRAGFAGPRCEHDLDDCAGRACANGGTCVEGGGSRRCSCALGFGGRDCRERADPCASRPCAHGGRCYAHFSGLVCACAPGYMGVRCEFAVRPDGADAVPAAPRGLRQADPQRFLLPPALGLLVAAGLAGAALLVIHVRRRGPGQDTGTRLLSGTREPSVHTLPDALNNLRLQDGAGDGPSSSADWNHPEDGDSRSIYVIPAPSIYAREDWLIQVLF

How did the DLL3 positive cells (%) [1] turn out when AMG 757 (bispecific antibody) was run?
Its DLL3 positive cells (%) is 99.7%.

What about the DLL3 positive cells (%) [2] of the same substance?
Its DLL3 positive cells (%) is 99.5%.

And the DLL3 positive cells (%) [3]?
Its DLL3 positive cells (%) is 98.4%.

What about the DLL3 positive cells (%) [4] of the same substance?
The DLL3 positive cells (%) was 98.6%.

And the DLL3 positive cells (%) [5]?
Its DLL3 positive cells (%) is 98.6%.

What about the DLL3 positive cells (%) [6] of the same substance?
Its DLL3 positive cells (%) is 3.3%.
